Experimental data from article doi:10.1101/2021.01.26.428356, “Sequence signatures of two IGHV3-53/3-66 public clonotypes to SARS-CoV-2 receptor binding domain” (bioRxiv, 2021).

Molecular target: T1, Fc-tagged receptor-binding domain (RBD) of the SARS-CoV-2 spike (S) protein (SARS-CoV-2, Wuhan-Hu-1 (GenBank …, UniProt P0DTC2))
T1 construct: also called SARS-CoV-2 RBD; SARS-CoV-2 S RBD-Fc; not shown: Fc, C-terminal, kept
Experiment: BLI; Octet Red96e; Fc-tagged RBD loaded onto the biosensor (streptavidin biosensors as printed), Fab in solution; 1x PBS pH 7.4, 0.01% w/v BSA, 0.002% v/v Tween 20; 60 s association, 60 s dissociation; 1:1 binding model
Settings: both partners purified

Binder | binding result
COVA2-20 Fab, F58 variant (heavy chain Y58F) (Fab, V domains shown, also called COVA2-20 F58) VH: EVQLVESGGGLIQPGGSLRLSCAASGFTVSSNYMSWVRQAPGKGLEWVSVIYSGGSTFYADSVKGRFTISRDNSKNTLYLQMNSLRAEDTAVYYCASPLLLTPPDYYYYMDVWGKGTMVTVSS VL: DVVMTQSPSSLSVSVGDRVTITCRASQGIRNDLGWYQQKPGKAPKRLIYAASSLQSGVPSRFSGSGSGTEFTLTISSLQPEDFATYYCLQHNSYLWTFGQGTKLEIK | binds
CC12.3 Fab, Y58 variant (heavy chain F58Y) (Fab, V domains shown, also called CC12.3 Y58) VH: QVQLVESGGGLIQPGGSLRLSCAASGFTVSSNYMSWVRQAPGKGLEWVSVIYSGGSTYYADSVKGRFTISRDNSKSTLYLQMNSLRVEDTAVYYCARDFGDFYFDYWGQGTLVTVSS VL: not shown | binds
